From article PMC7688924, “α-Galactosidase and Sucrose-Kinase Relationships in a Bi-functional AgaSK Enzyme Produced by the Human Gut Symbiont Ruminococcus gnavus E1” (Frontiers in Microbiology, 2020) come the findings set out here.

Substrate in data set [1]: Nc1ncnc2c1ncn2[C@@H]1O[C@H](COP(=O)(O)OP(=O)(O)OP(=O)(O)O)[C@@H](O)[C@H]1O
Briefly: bioluminescence ATP consumption assay (luciferin/luciferase). Particulars: sucrose 5 mM, pH 8.0, 30 °C, ATP 0-10 mM, […] enzyme. It counts as biochemical, Mediterraneibacter gnavus. From the text:
bioluminescence ATP consumption assay (luciferin/luciferase) on […]

Substrate in the data set “purified protein”: O=[N+]([O-])c1ccc(O[C@H]2O[C@H](CO)[C@H](O)[C@H](O)[C@H]2O)cc1
Briefly: purified protein. Particulars: McIlvaine's buffer pH 6.0, 42 °C, pNPGal 0.078-10 mM.

Substrate in data set [2]: Nc1ncnc2c1ncn2[C@@H]1O[C@H](COP(=O)(O)OP(=O)(O)OP(=O)(O)O)[C@@H](O)[C@H]1O
Briefly: bioluminescence ATP consumption assay (luciferin/luciferase). Type of data set: biochemical, Mediterraneibacter gnavus. The following applies: sucrose 5 mM, pH 8.0, 30 °C, ATP 0-10 mM, […] enzyme. The text has this: bioluminescence ATP consumption assay (luciferin/luciferase) on RgSK
This is another data set of the same source.

B1: RgAgaSK (Mediterraneibacter gnavus) (protein)
chain: MAIIYNPNKKIFTLHTAHTTYQMQVDPLGYLLHLYYGEKTNSSMDYVLTYADRGFSGNPYAAGMDRTYSLDALPQEYPSLGTGDYRNIALNIKNEKGVESADLLFKSYEIRNGKYRLQGLPAVWADEKEAQTLEIVLADENAQVEVHLLYGVLEENDVITRSVRIKNTGTGQITIEKAAAACLDFVQGEFDVLRFYGKHAMERNLERTPLGHGTIAFGSRRGTSSHQYNPAVILAEKGTTETAGSCYGMLFVYSGNFSCEAEKDQFNQTRLLLGLNEELFSYPLASGETFTVPEVILSYSAEGLSALSQQYHNCIRNHVCRSKYVHMQRPVLINSWEAAYFDFTGDTIVDLAKEAASLGIDMVVMDDGWFGKRNDDNSSLGDWQVNETKLGGSLAELITRVHEQGMKFGIWIEPEMINEDSDLYRAHPDWAIRIQGKKPVRSRNQLLLDFSRKEVRDCVFDQICVVLDQGKIDYVKWDMNRSMADVYAGNLSYDYVLGVYDFMERLCSRYPDLLLEGCSGGGGRFDAGMLYYSPQIWCSDNTDAINRTRIQYGTSFFYPVSAMGAHVSAVPNHQTGRVTSFHTRGVTAMAGTFGYELNPALLSDEEKQQIREQIKTYKKYETLINEGTYWRLSDPFTDEIAAWMSVSEEQDHALVSVVRLMAEANQATVYVRLRGLKPDAVYLEEQSGRQYSGAALMHAGIPLPPFTEEYEAYQFAFTELKEAGRLYEKVQKWCDGNAENRVVISIYGGSGSGKTTLATALQQYFLNDGTECYLLSGDDYPHRIPKRNDEERMRVYKEAGEDGLRGYLGTKKEIDFDRINEVLAAFHEGKDSITLRHMGREDGEISLEETDFSGISVLLLEWTHGGSDDLHGVDLPVFLESSPGETRERRIRRNRDENAASPFICRVVELEQEKLEVQRKNAGLIVGKDGSVYEQ
notes: full-length bifunctional enzyme (935 residues), produced in E. coli as in Bruel 2011, Ni-NTA and gel filtration, His-tag (C-terminal 6xHis given for recombinant proteins), tetramer
As a reminder, the Km is the concentration of substrate that gives half-maximal velocity. In general, Vmax refers to the rate approached at saturating substrate. The kcat is the maximal rate divided by the concentration of active sites. By kcat/Km is commonly meant the second-order rate constant that governs catalysis at low substrate concentration. For the protein B1, in data set [1], the Km amounted to 8.4 ± 1.9 mM, the Vmax amounted to 0.0983 µmol/min, the kcat worked out at 38.1 ± 4.8 s⁻¹ and the kcat/Km amounted to 4530 M⁻¹ s⁻¹. In the data set “purified protein”, the Km came to 1.3 ± 0.2 mM, the Vmax turned out to be 0.179 µmol/min, the catalytic constant (kcat) was determined as 626 s⁻¹ and the kcat/Km worked out at 481000 M⁻¹ s⁻¹.

B2: RgSK (Mediterraneibacter gnavus) (protein)
chain: RLYEKVQKWCDGNAENRVVISIYGGSGSGKTTLATALQQYFLNDGTECYLLSGDDYPHRIPKRNDEERMRVYKEAGEDGLRGYLGTKKEIDFDRINEVLAAFHEGKDSITLRHMGREDGEISLEETDFSGISVLLLEWTHGGSDDLHGVDLPVFLESSPGETRERRIRRNRDENAASPFICRVVELEQEKLEVQRKNAGLIVGKDGSVYEQ
notes: isolated C-terminal sucrose kinase domain, Arg-724 to Gln-935, C-terminal His6 tag, E. coli BL21(DE3), pOPINE, 23,898 Da
As to B2, in data set [2], the Km worked out at 6.3 ± 1.8 mM, the Vmax stood at 0.0719 µmol/min, the kcat was 27.9 ± 4.3 s⁻¹ and the kcat/Km amounted to 4420 M⁻¹ s⁻¹.

B3: RgAga (Mediterraneibacter gnavus) (protein)
chain: AIIYNPNKKIFTLHTAHTTYQMQVDPLGYLLHLYYGEKTNSSMDYVLTYADRGFSGNPYAAGMDRTYSLDALPQEYPSLGTGDYRNIALNIKNEKGVESADLLFKSYEIRNGKYRLQGLPAVWADEKEAQTLEIVLADENAQVEVHLLYGVLEENDVITRSVRIKNTGTGQITIEKAAAACLDFVQGEFDVLRFYGKHAMERNLERTPLGHGTIAFGSRRGTSSHQYNPAVILAEKGTTETAGSCYGMLFVYSGNFSCEAEKDQFNQTRLLLGLNEELFSYPLASGETFTVPEVILSYSAEGLSALSQQYHNCIRNHVCRSKYVHMQRPVLINSWEAAYFDFTGDTIVDLAKEAASLGIDMVVMDDGWFGKRNDDNSSLGDWQVNETKLGGSLAELITRVHEQGMKFGIWIEPEMINEDSDLYRAHPDWAIRIQGKKPVRSRNQLLLDFSRKEVRDCVFDQICVVLDQGKIDYVKWDMNRSMADVYAGNLSYDYVLGVYDFMERLCSRYPDLLLEGCSGGGGRFDAGMLYYSPQIWCSDNTDAINRTRIQYGTSFFYPVSAMGAHVSAVPNHQTGRVTSFHTRGVTAMAGTFGYELNPALLSDEEKQQIREQIKTYKKYETLINEGTYWRLSDPFTDEIAAWMSVSEEQDHALVSVVRLMAEANQATVYVRLRGLKPDAVYLEEQSGRQYSGAALMHAGIPLPPFTEEYEAYQFAFTELK
Regarding B3, in the data set “purified protein”, the Km was determined as 1.2 ± 0.2 mM, the Vmax came out at 0.236 µmol/min, the kcat came to 827 s⁻¹ and the kcat/Km turned out to be 689000 M⁻¹ s⁻¹.
